Assay results published in US20150344570A1 (published 2015).

T1: FcγRIIb extracellular domain with C-terminal His tag (human, UniProt P31994 43-217)
T1 construct: extracellular domain; expressed in FreeStyle293 cells; analyte in Biacore; also called FcgRIIb; 2b
T1 sequence (looked up): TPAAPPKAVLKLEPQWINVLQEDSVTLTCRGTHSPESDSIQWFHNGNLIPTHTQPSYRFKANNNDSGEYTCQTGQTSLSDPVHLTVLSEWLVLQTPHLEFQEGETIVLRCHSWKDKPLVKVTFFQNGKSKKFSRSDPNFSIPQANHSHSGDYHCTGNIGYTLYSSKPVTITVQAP

B1: GpH7-A5/GpH7-B3 variant Y296_19Q/GpL16-k0 (antibody, human IgG1, kappa)
heavy 1: not shown
heavy 2: not shown
light: DIVMTQSPLSLPVTPGEPASISCQASESLVHSNRNTYLHWYLQKPGQSPQLLIYKVSNRFSGVPDRFSGSGSGTDFTLKISRVEAEDVGVYYCSQNTHVPPTFGQGTKVEIERTVAAPSVFIFPPSDEQLKSGTASVVCLLNNFYPREAKVQWKVDNALQSGNSQESVTEQDSKDSTYSLSSTLTLSKADYEKHKVYACEVTHQGLSSPVTKSFNRGEC
notes: He Ab; IgG1, mutation in one H chain
B2: GpH7-A5/GpH7-B3 variant Y296_06M/GpL16-k0 (antibody, human IgG1, kappa)
heavy 1: not shown
heavy 2: not shown
light: B1 light
notes: as for B1
B3: GpH7-A5/GpH7-B3 variant Y296_12R/GpL16-k0 (antibody, human IgG1, kappa)
heavy 1: not shown
heavy 2: not shown
light: B1 light
notes: as for B1
B4: GpH7-A5/GpH7-B3 variant S298_03V/GpL16-k0 (antibody, human IgG1, kappa)
heavy 1: not shown
heavy 2: not shown
light: B1 light
notes: as for B1
B5: GpH7-A5/GpH7-B3 variant S298_16H/GpL16-k0 (antibody, human IgG1, kappa)
heavy 1: not shown
heavy 2: not shown
light: B1 light
notes: as for B1
B6: GpH7-A5/GpH7-B3 variant Y296_11K/GpL16-k0 (antibody, human IgG1, kappa)
heavy 1: not shown
heavy 2: not shown
light: B1 light
notes: as for B1
B7: GpH7-A5/GpH7-B3 variant Y300_06M/GpL16-k0 (antibody, human IgG1, kappa)
heavy 1: not shown
heavy 2: not shown
light: B1 light
notes: as for B1
B8: GpH7-A5/GpH7-B3 variant Q295_14T/GpL16-k0 (antibody, human IgG1, kappa)
heavy 1: not shown
heavy 2: not shown
light: B1 light
notes: as for B1
B9: GpH7-A5/GpH7-B3 variant Y296_09D/GpL16-k0 (antibody, human IgG1, kappa)
heavy 1: not shown
heavy 2: not shown
light: B1 light
notes: as for B1
B10: GpH7-A5/GpH7-B3 variant Y300_07I/GpL16-k0 (antibody, human IgG1, kappa)
heavy 1: not shown
heavy 2: not shown
light: B1 light
notes: as for B1
B11: GpH7-A5/GpH7-B3 variant S298_10E/GpL16-k0 (antibody, human IgG1, kappa)
heavy 1: not shown
heavy 2: not shown
light: B1 light
notes: as for B1
B12: GpH7-A5/GpH7-B3 variant Y300_01G/GpL16-k0 (antibody, human IgG1, kappa)
heavy 1: not shown
heavy 2: not shown
light: B1 light
notes: as for B1
B13: GpH7-A5/GpH7-B3 variant S298_01G/GpL16-k0 (antibody, human IgG1, kappa)
heavy 1: not shown
heavy 2: not shown
light: B1 light
notes: as for B1
B14: GpH7-A5/GpH7-B3 variant Y300_02A/GpL16-k0 (antibody, human IgG1, kappa)
heavy 1: not shown
heavy 2: not shown
light: B1 light
notes: as for B1
B15: GpH7-A5/GpH7-B3 variant Y296_10E/GpL16-k0 (antibody, human IgG1, kappa)
heavy 1: not shown
heavy 2: not shown
light: B1 light
notes: as for B1
B16: GpH7-A5/GpH7-B3 variant Y296_08L/GpL16-k0 (antibody, human IgG1, kappa)
heavy 1: not shown
heavy 2: not shown
light: B1 light
notes: as for B1
B17: GpH7-A5/GpH7-B3 variant Q295_15Y/GpL16-k0 (antibody, human IgG1, kappa)
heavy 1: not shown
heavy 2: not shown
light: B1 light
notes: as for B1
B18: GpH7-A5/GpH7-B3 variant Q295_18N/GpL16-k0 (antibody, human IgG1, kappa)
heavy 1: not shown
heavy 2: not shown
light: B1 light
notes: as for B1
B19: GpH7-A5/GpH7-B3 variant Y300_12R/GpL16-k0 (antibody, human IgG1, kappa)
heavy 1: not shown
heavy 2: not shown
light: B1 light
notes: as for B1
B20: GpH7-A5/GpH7-B3 variant S298_11K/GpL16-k0 (antibody, human IgG1, kappa)
heavy 1: not shown
heavy 2: not shown
light: B1 light
notes: as for B1
B21: GpH7-A5/GpH7-B3 variant Y300_09D/GpL16-k0 (antibody, human IgG1, kappa)
heavy 1: not shown
heavy 2: not shown
light: B1 light
notes: as for B1
B22: GpH7-A5/GpH7-B3 variant Y296_01G/GpL16-k0 (antibody, human IgG1, kappa)
heavy 1: not shown
heavy 2: not shown
light: B1 light
notes: as for B1
B23: GpH7-A5/GpH7-B3 variant S298_12R/GpL16-k0 (antibody, human IgG1, kappa)
heavy 1: not shown
heavy 2: not shown
light: B1 light
notes: as for B1
B24: GpH7-A5/GpH7-B3 variant Y300_11K/GpL16-k0 (antibody, human IgG1, kappa)
heavy 1: not shown
heavy 2: not shown
light: B1 light
notes: as for B1
B25: GpH7-A5/GpH7-B3 variant S324_07I/GpL16-k0 (antibody, human IgG1, kappa)
heavy 1: not shown
heavy 2: not shown
light: B1 light
notes: as for B1

These binders were tested against T2, FcγRIa extracellular domain with C-terminal His tag (human, UniProt P12314 16-292) (assay: SPR (Biacore), captured antibody, FcγR as analyte; relative binding).
T2 construct: extracellular domain; expressed in FreeStyle293 cells; analyte in Biacore; also called FcgRI; 1a
T2 sequence (P12314 16-292): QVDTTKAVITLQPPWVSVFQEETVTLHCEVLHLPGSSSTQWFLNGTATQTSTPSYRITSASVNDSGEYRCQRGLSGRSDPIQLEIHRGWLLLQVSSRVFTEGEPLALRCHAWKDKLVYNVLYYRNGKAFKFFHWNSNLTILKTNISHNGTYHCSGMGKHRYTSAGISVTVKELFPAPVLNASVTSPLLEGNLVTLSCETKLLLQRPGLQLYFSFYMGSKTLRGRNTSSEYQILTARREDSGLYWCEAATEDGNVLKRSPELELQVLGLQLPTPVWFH

He/Con_1a	Binder
112 % of HeCon Ab (GpH7-A5/GpH7-B3/GpL16-k0 = 100)	B1
104 % of HeCon Ab (GpH7-A5/GpH7-B3/GpL16-k0 = 100)	B2
106 % of HeCon Ab (GpH7-A5/GpH7-B3/GpL16-k0 = 100)	B3
110 % of HeCon Ab (GpH7-A5/GpH7-B3/GpL16-k0 = 100)	B4
109 % of HeCon Ab (GpH7-A5/GpH7-B3/GpL16-k0 = 100)	B5
105 % of HeCon Ab (GpH7-A5/GpH7-B3/GpL16-k0 = 100)	B6
112 % of HeCon Ab (GpH7-A5/GpH7-B3/GpL16-k0 = 100)	B7
103 % of HeCon Ab (GpH7-A5/GpH7-B3/GpL16-k0 = 100)	B8
106 % of HeCon Ab (GpH7-A5/GpH7-B3/GpL16-k0 = 100)	B9
108 % of HeCon Ab (GpH7-A5/GpH7-B3/GpL16-k0 = 100)	B10
108 % of HeCon Ab (GpH7-A5/GpH7-B3/GpL16-k0 = 100)	B11
116 % of HeCon Ab (GpH7-A5/GpH7-B3/GpL16-k0 = 100)	B12
104 % of HeCon Ab (GpH7-A5/GpH7-B3/GpL16-k0 = 100)	B13
112 % of HeCon Ab (GpH7-A5/GpH7-B3/GpL16-k0 = 100)	B14
106 % of HeCon Ab (GpH7-A5/GpH7-B3/GpL16-k0 = 100)	B15
104 % of HeCon Ab (GpH7-A5/GpH7-B3/GpL16-k0 = 100)	B16
102 % of HeCon Ab (GpH7-A5/GpH7-B3/GpL16-k0 = 100)	B17
102 % of HeCon Ab (GpH7-A5/GpH7-B3/GpL16-k0 = 100)	B18
105 % of HeCon Ab (GpH7-A5/GpH7-B3/GpL16-k0 = 100)	B19
109 % of HeCon Ab (GpH7-A5/GpH7-B3/GpL16-k0 = 100)	B20
112 % of HeCon Ab (GpH7-A5/GpH7-B3/GpL16-k0 = 100)	B21
103 % of HeCon Ab (GpH7-A5/GpH7-B3/GpL16-k0 = 100)	B22
109 % of HeCon Ab (GpH7-A5/GpH7-B3/GpL16-k0 = 100)	B23
107 % of HeCon Ab (GpH7-A5/GpH7-B3/GpL16-k0 = 100)	B24
102 % of HeCon Ab (GpH7-A5/GpH7-B3/GpL16-k0 = 100)	B25

Each binder was assayed against T1, FcγRIIb extracellular domain with … in the same assay as above.

He/Con_2b	Binder
89.3 % of HeCon Ab (GpH7-A5/GpH7-B3/GpL16-k0 = 100)	B1
87.8 % of HeCon Ab (GpH7-A5/GpH7-B3/GpL16-k0 = 100)	B2
79.5 % of HeCon Ab (GpH7-A5/GpH7-B3/GpL16-k0 = 100)	B3
64.5 % of HeCon Ab (GpH7-A5/GpH7-B3/GpL16-k0 = 100)	B4
63.5 % of HeCon Ab (GpH7-A5/GpH7-B3/GpL16-k0 = 100)	B5
72.8 % of HeCon Ab (GpH7-A5/GpH7-B3/GpL16-k0 = 100)	B6
84.3 % of HeCon Ab (GpH7-A5/GpH7-B3/GpL16-k0 = 100)	B7
66.8 % of HeCon Ab (GpH7-A5/GpH7-B3/GpL16-k0 = 100)	B8
98.9 % of HeCon Ab (GpH7-A5/GpH7-B3/GpL16-k0 = 100)	B9
74.5 % of HeCon Ab (GpH7-A5/GpH7-B3/GpL16-k0 = 100)	B10
47.6 % of HeCon Ab (GpH7-A5/GpH7-B3/GpL16-k0 = 100)	B11
48.4 % of HeCon Ab (GpH7-A5/GpH7-B3/GpL16-k0 = 100)	B12
80.1 % of HeCon Ab (GpH7-A5/GpH7-B3/GpL16-k0 = 100)	B13
69.2 % of HeCon Ab (GpH7-A5/GpH7-B3/GpL16-k0 = 100)	B14
98 % of HeCon Ab (GpH7-A5/GpH7-B3/GpL16-k0 = 100)	B15
82.3 % of HeCon Ab (GpH7-A5/GpH7-B3/GpL16-k0 = 100)	B16
65.4 % of HeCon Ab (GpH7-A5/GpH7-B3/GpL16-k0 = 100)	B17
64.9 % of HeCon Ab (GpH7-A5/GpH7-B3/GpL16-k0 = 100)	B18
41.2 % of HeCon Ab (GpH7-A5/GpH7-B3/GpL16-k0 = 100)	B19
61.3 % of HeCon Ab (GpH7-A5/GpH7-B3/GpL16-k0 = 100)	B20
93.2 % of HeCon Ab (GpH7-A5/GpH7-B3/GpL16-k0 = 100)	B21
79.3 % of HeCon Ab (GpH7-A5/GpH7-B3/GpL16-k0 = 100)	B22
57.8 % of HeCon Ab (GpH7-A5/GpH7-B3/GpL16-k0 = 100)	B23
51.6 % of HeCon Ab (GpH7-A5/GpH7-B3/GpL16-k0 = 100)	B24
95.7 % of HeCon Ab (GpH7-A5/GpH7-B3/GpL16-k0 = 100)	B25
